T1: Fas receptor (human, UniProt P25445 26-335)
T1 sequence (looked up): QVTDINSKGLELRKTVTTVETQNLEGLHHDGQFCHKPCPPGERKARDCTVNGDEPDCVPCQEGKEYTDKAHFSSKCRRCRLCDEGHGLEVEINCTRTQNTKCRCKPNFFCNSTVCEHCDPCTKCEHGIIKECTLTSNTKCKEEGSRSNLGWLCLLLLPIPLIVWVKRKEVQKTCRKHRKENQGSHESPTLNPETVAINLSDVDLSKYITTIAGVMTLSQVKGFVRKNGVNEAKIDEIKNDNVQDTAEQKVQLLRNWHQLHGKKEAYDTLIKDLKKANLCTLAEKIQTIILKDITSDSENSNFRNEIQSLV


Target: T1, Fas receptor
Assay: cell-based or functional assay

Molecule | IC50 (ng/ml), PESMTS survival assay, ARH-77 cells [ng/mL] | IC50 (ng/ml), PESMTS survival assay, DOHH2 cells [ng/mL] | IC50 (ng/ml), PESMTS survival assay, HL60 (AML-M3) cells [ng/mL] | IC50 (ng/ml), PESMTS survival assay, Jurkat cells [ng/mL] | IC50 (ng/ml), PESMTS survival assay, K562 cells [ng/mL] | IC50 (ng/ml), PESMTS survival assay, NB4 (AML-M3) cells [ng/mL] | IC50 (ng/ml), PESMTS survival assay, Namalwa (ALL-L3) cells [ng/mL] | IC50 (ng/ml), PESMTS survival assay, RPMI-8226 cells [ng/mL] | IC50 (ng/ml), PESMTS survival assay, Raji (ALL-L3) cells [ng/mL] | IC50 (ng/ml), PESMTS survival assay, SC-1 cells [ng/mL] | IC50 (ng/ml), PESMTS survival assay, U266 cells [ng/mL] | IC50 (ng/ml), PESMTS survival assay, OPM2 cells [ng/mL]
CH11 (antibody) | > 10000 | > 10000 | > 10000 | 6.58 | > 10000 | > 10000 | > 10000 | > 10000 | 15.8 | > 10000 | > 10000 | –
MegaFasL (fusion polypeptide m or hACRP30:hFasL) (ligand) QLFHLQKELAELRESTSQMHTASSLEKQIGHPSPPPEKKELRKVAHLTGKSNSRSMPLEWEDTYGIVLLSGVKYKKGGLVINETGLYFVYSKVYFRGQSCNNLPLSHKVYMRNSKYPQDLVMMEGKMMSYCTTGQMWARSSYLGAVFNLTSADHLYVNVSELSLVNFEESQTFFGLYKL | 10.4 | 1.17 | 213 | 0.06 | > 10000 | 16 | 57 | 3.57 | 5.6 | > 10000 | 6.2 | 2.19

Source: patent publication US20150098924A1 (TOPOTARGET SWITZERLAND, published 2015)
